Reference: patent US20250122257A1, “USE OF KININ OR DERIVATIVE THEREOF IN TREATING VCI, PSCI, OR CSVD” (ZonHon Biopharma Institute, Inc., priority 2022, published 2025)
Like-named read-outs stand apart in the source and are kept apart here. Square brackets hold non-standard residues; d marks the D form. Ends that are not written are not given here. Peptide text beside a SMILES is read from it. 2Thi = N[C@@H](Cc1cccs1)C(=O)O

Assays:
[1] = molecular target: T1, B2 receptor (Homo sapiens, UniProt P30411); experiment: Affinity activity to B2 receptor, reporter gene assay in B2-NFAT-CHO-K1 cells; type: cell-based; details: relative activity calculated from EC50, 5 hours
T1 construct: expressed in transfected cells
T1 sequence (P30411 1-391): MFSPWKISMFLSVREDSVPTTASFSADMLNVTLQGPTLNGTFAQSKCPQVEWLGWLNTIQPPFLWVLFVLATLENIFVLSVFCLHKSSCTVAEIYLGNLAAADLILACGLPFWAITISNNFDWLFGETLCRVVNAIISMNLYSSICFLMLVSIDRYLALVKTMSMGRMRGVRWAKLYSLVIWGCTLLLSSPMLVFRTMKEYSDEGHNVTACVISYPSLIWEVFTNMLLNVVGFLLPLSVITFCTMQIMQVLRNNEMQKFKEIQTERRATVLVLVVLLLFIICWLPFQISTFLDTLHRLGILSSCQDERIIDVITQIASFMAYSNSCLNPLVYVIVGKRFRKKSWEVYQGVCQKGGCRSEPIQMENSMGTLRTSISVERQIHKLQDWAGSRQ
Experimental: The cell line B2-NFAT-CHO-K1 stably transfected with B2 receptor reporter gene was constructed based on CHO-K1 host cells and the cell library was constructed. The B2-NFAT-CHO-K1 cell library was used to evaluate the binding activity of lysyl bradykinin/bradykinin or its variants or PEG modified products to B2 receptor in vitro.
Detection methods: The cells were cultured in 96-well plates at 5×10^4cells/well, 37° C., 5% CO2 for 16-20 hours, and then gradient diluted standard and test solutions were added. After 5 hours, added Bio-Lite luciferase detection reagent and the chemiluminescence intensity was measured. GraphPad was used to make four-parameter equation curve and calculate the relative activity according to the EC50 value.
(§1) In vitro B2-receptor affinity activity and activity of activating downstream signaling pathway of PEG conjugates of lysyl bradykinin and its variants were tested, as in Example 3.

[2] = test system: B2 receptor downstream signals p-CREB and p-ERK1/2; experiment: Phosphorylation of downstream ERK1/2 and CREB by WB in CHO-K1 (B2R+) cells; type: cell-based; details: FIG. 3, WB
Experimental: as §1

[3] = in vivo, cited from earlier work

| Relative affinity activity to B2 receptor [1] [%] | Compound | other results |
| --- | --- | --- |
| 0 | Lys-BKm10: SPFR, SEQ ID NO 11 | – |
| <10 | Lys-BKm08: PG{THI}SPFR, SEQ ID NO 9 (PG[2Thi]SPFR) | – |
| – | Lys-BKm13-SPA5K: Lys-BKm13 modified with SPA5K PEG (CRRPPG[2Thi]SPFR; also: modified with SPA5K PEG, site not given here) | Activity of PEG conjugates in activating phosphorylation of ERK1/2 and CREB (in words) [2]: highest activity among different peptide variants |
| – | NCCCC[C@H](N)C(=O)N[C@@H](CCCN=C(N)N)C(=O)N1CCC[C@H]1C(=O)N1CCC[C@H]1C(=O)NCC(=O)N[C@@H](Cc1ccccc1)C(=O)N[C@@H](CO)C(=O)N1CCC[C@H]1C(=O)N[C@@H](Cc1ccccc1)C(=O)N[C@@H](CCCN=C(N)N)C(=O)O [Lys-BK, lysyl bradykinin] | Half-life [3]: only seconds |
| – | NC(N)=NCCC[C@H](NC(=O)[C@H](Cc1ccccc1)NC(=O)[C@@H]1CCCN1C(=O)[C@H](CO)NC(=O)[C@H](Cc1ccccc1)NC(=O)CNC(=O)[C@@H]1CCCN1C(=O)[C@@H]1CCCN1C(=O)[C@@H](N)CCCN=C(N)N)C(=O)O [BK, bradykinin] (H-RPPGFSPFR-OH) | Half-life ([3]; reported): only seconds |
| 0 | Lys-BKm09: {THI}SPFR, SEQ ID NO 10 ([2Thi]SPFR) | – |
